In PMC9239237, “Salmonella Facilitates Iron Acquisition through UMPylation of Ferric Uptake Regulator” (mBio, 2022):

T1: Fur (native, not UMPylated) (Escherichia coli K-12 substrain MG1655, UniProt P0A9A9 1-148)
T1 sequence: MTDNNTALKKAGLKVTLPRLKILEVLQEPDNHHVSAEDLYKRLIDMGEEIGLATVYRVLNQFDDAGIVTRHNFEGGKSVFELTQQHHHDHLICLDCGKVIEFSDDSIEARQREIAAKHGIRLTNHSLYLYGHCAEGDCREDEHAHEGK


Experiments:
[1] = target: the molecule itself; assay: SEC; 100 ug protein on a Superdex 200 column; a 53-kDa protein and a 22-kDa protein run under the same conditions as controls
[2] = target: T1, Fur (native, not UMPylated); assay: EMSA; shift at Fur:DNA molar ratio above 1; no metal addition stated; DNA annealed in 10 mM Tris-HCl pH 7.5, 150 mM NaCl; binding buffer not stated; 20 nM DNA, 37 C 10 min (Methods) vs 10 nmol DNA, 30 C 10 min (Fig. 4 legend); 6%; conditions: protein: recombinant; tags: His tag removed with PPase (pGL01); chain copies: 2; blunt

Binder | stoichiometry N [1] | binding result [2]
E. coli Fur (ferric uptake regulator) purified from ydiU knockout E. coli, without UMPylation (natural protein, UniProt P0A9A9 1-148, looked up, Ferric uptake regulator Fur, E. coli K-12 substrain MG1655; fur gene amplified from genomic DNA and cloned into pGL01 (modified pET15b with a PPase cleavage site); also called Fur^dYdiU; native Fur; source: E. coli BL21(DE3) ydiU knockout strain, purified (Ni-NTA, His tag removed by PPase, Superdex 200)) MTDNNTALKKAGLKVTLPRLKILEVLQEPDNHHVSAEDLYKRLIDMGEEIGLATVYRVLNQFDDAGIVTRHNFEGGKSVFELTQQHHHDHLICLDCGKVIEFSDDSIEARQREIAAKHGIRLTNHSLYLYGHCAEGDCREDEHAHEGK | 2 | –
Fur box DNA (dsDNA) DNA 1: GATAATGATAATGATAATGATAATGATAATGA DNA 2: TCATTATCATTATCATTATCATTATCATTATC | – | binds
